Like-named read-outs stand apart in the source and are kept apart here. Ends that are not written are not given here. Peptide text beside a SMILES is read from it.
Legend:
HIV-1 [1] = conditions: summary of Experiments 1-6
Protocol: Next, the ability of peptide agents to inhibit viral infection was evaluated. Accordingly, the peptide agents listed in Table 1 were used in several viral (e.g., HIV-1, HIV-2, and SIV) infection assays. […] Once inhibitory tripeptides were identified, more specific assays were conducted to determine the effect of varying concentrations of the selected tripeptides and combination treatments (e.g., the use of more than one modified tripeptide in combination).

HIV-1 [2] = conditions: 100 μM; Experiment 6
Protocol: The HUT cells were resuspended in 1 ml of RPMI 1640 medium supplemented with 10% (v/v) heat-inactivated fetal bovine serum (FBS, GIBCO), penicillin (100 u/ml), streptomycin (100 u/ml) and Polybrene (Sigma, 2 μg/ml) with or without the presence of the different small peptides (100 μM) mentioned above. Thereafter, the HIV-1 virus was added at 25 TCID50 in a volume of 20 μl. Cells were incubated with the virus at 37° C. for one hour and, subsequently, the cells were pelleted at 170× g for seven minutes. The cells were then washed three times in RPMI medium without peptides at room temperature by cell sedimentation at 170× g for seven minutes, as above. After the final wash, the cells were resuspended in RPMI culture medium in 24-well plate (Costar corporation) and were kept at 37° C. in 5% CO2 with humidity. Culture supernatants were collected when medium was changed at day 4, 7, and 11 post infection and viral p24 production was monitored by using an HIV-1 p24 ELISA kit (Abbott Laboratories, North Chicago, USA).

[3] = target: viral capsid protein (p24) of HIV-2 (HIV-2)
[4] = target: viral capsid protein (p24) of SIV (SIV)
[5] = target: viral capsid protein (p24) of HIV-2 (HIV-2); remark: listed apart in the source
[6] = target: major capsid protein (p24) of HIV-1 (HIV-1) (UniProt P04591)
[7] = target: viral capsid protein (p24) of SIV (SIV); remark: listed apart in the source
[8] = target: T1, major capsid protein (p24) of HIV-1 (HIV-1, UniProt P04591); assay: cell-based or functional assay
[9] = target: T1, major capsid protein (p24) of HIV-1; assay: cell-based or functional assay; remark: listed apart in the source

## CC(C)C[C@H](NC(=O)[C@H](C)N)C(=O)NCC(N)=O [ALG-NH2, alanyl-leucyl-glycine amide] (H-Ala-Leu-Gly-NH2)
HIV-1 [1]
  effect on HIV-1 infection, in words: inhibited and/or prevented HIV-1 infection
HIV-1 [2]
  reduction of virus, capsid protein p24 in the supernatant: ~100%

## C[C@H](N)C(=O)N[C@@H](CO)C(=O)NCC(N)=O [ASG-NH2, alanyl-seryl-glycine amide] (H-Ala-Ser-Gly-NH2)
HIV-1 [1]
  effect on HIV-1 infection, in words: inhibited and/or prevented HIV-1 infection
HIV-1 [2]
  inhibiting or preventing HIV-1 infection, in words: less effective

## CC(C)[C@H](NC(=O)CN)C(=O)NCC(N)=O [GVG-NH2, glycyl-valyl-glycine amide] (H-Gly-Val-Gly-NH2)
HIV-1 [1]
  effect on HIV-1 infection, in words: inhibited and/or prevented HIV-1 infection
HIV-1 [2]
  inhibiting or preventing HIV-1 infection, in words: less effective

## NCCCC[C@H](N)C(=O)N[C@@H](CCC(N)=O)C(=O)NCC(N)=O [KQG-NH2, lysyl-glutaminyl-glycine amide] (H-Lys-Gln-Gly-NH2)
HIV-1 [1]
  effect on HIV-1 infection, in words: inhibited and/or prevented HIV-1 infection
HIV-1 [2]
  reduction of virus, capsid protein p24 in the supernatant: ~100%

## N=C(N)NCCC[C@H](N)C(=O)N[C@@H](CCC(N)=O)C(=O)NCC(N)=O [RQG-NH2, arginyl-glutaminyl-glycine amide] (H-Arg-Gln-Gly-NH2)
HIV-1 [1]
  effect on HIV-1 infection, in words: inhibited and/or prevented HIV-1 infection
HIV-1 [2]
  reduction of virus, capsid protein p24 in the supernatant: ~100%

## CC(C)C[C@H](NC(=O)[C@@H](N)CO)C(=O)NCC(N)=O [SLG-NH2, seryl-leucyl-glycine amide] (H-Ser-Leu-Gly-NH2)
HIV-1 [1]
  effect on HIV-1 infection, in words: inhibited and/or prevented HIV-1 infection
HIV-1 [2]
  reduction of virus, capsid protein p24 in the supernatant: ~100%

## C[C@@H](O)[C@H](NC(=O)[C@@H]1CCCN1C(=O)[C@@H](N)CO)C(N)=O [SPT-NH2, seryl-prolyl-threonine amide] (H-Ser-Pro-Thr-NH2)
HIV-1 [1]
  effect on HIV-1 infection, in words: inhibited and/or prevented HIV-1 infection
HIV-1 [2]
  inhibiting or preventing HIV-1 infection, in words: less effective

## CC(C)[C@H](N)C(=O)NCC(=O)NCC(N)=O [VGG-NH2, valyl-glycyl-glycine amide] (H-Val-Gly-Gly-NH2)
HIV-1 [1]
  effect on HIV-1 infection, in words: inhibited and/or prevented HIV-1 infection
HIV-1 [2]
  inhibiting or preventing HIV-1 infection, in words: less effective

## GAT-NH2 (peptide)
[3]
  reverse transcriptase (RT) activity in the supernatants, Day 10 RT (OD): 2.83 OD
[4]
  reverse transcriptase (RT) activity in the supernatants, Day 10 RT (OD): 2.34 OD

## GHK-NH2 (peptide)
[3]
  reverse transcriptase (RT) activity in the supernatants, Day 10 RT (OD): 2.93 OD
[4]
  reverse transcriptase (RT) activity in the supernatants, Day 10 RT (OD): 2.38 OD

## GKG-NH2 + CQG-NH2 (pool or library)
[5]
  reverse transcriptase (RT) activity in the supernatants, Day 10 RT (OD): 2.8 OD
[6]
  reverse transcriptase (RT) activity in the supernatants, Day 10 RT (OD): 1.89 OD
[7]
  reverse transcriptase (RT) activity in the supernatants, Day 10 RT (OD): 2.89 OD

## GPG-NH2 + CQG-NH2 (pool or library)
[5]
  reverse transcriptase (RT) activity in the supernatants, Day 10 RT (OD): 1.17 OD
[6]
  reverse transcriptase (RT) activity in the supernatants, Day 10 RT (OD): 0.397 OD
[7]
  reverse transcriptase (RT) activity in the supernatants, Day 10 RT (OD): 0.91 OD

## GPG-NH2 + GKG-NH2 (pool or library)
[5]
  reverse transcriptase (RT) activity in the supernatants, Day 10 RT (OD): 1.11 OD
[6]
  reverse transcriptase (RT) activity in the supernatants, Day 10 RT (OD): 0.164 OD
[7]
  reverse transcriptase (RT) activity in the supernatants, Day 10 RT (OD): 0.309 OD

## GPQ-NH2 (peptide)
[3]
  reverse transcriptase (RT) activity in the supernatants, Day 10 RT (OD): 2.73 OD
[4]
  reverse transcriptase (RT) activity in the supernatants, Day 10 RT (OD): 2.18 OD

## Gly-Lys-Gly-NH2 (peptide)
[3]
  reverse transcriptase (RT) activity in the supernatants, Day 10 RT (OD): 0.147 OD
[4]
  reverse transcriptase (RT) activity in the supernatants, Day 10 RT (OD): 0.099 OD

## HKA-NH2 (peptide)
[3]
  reverse transcriptase (RT) activity in the supernatants, Day 10 RT (OD): 2.67 OD
[4]
  reverse transcriptase (RT) activity in the supernatants, Day 10 RT (OD): 2.52 OD

## ILK-NH2 (peptide)
[3]
  reverse transcriptase (RT) activity in the supernatants, Day 10 RT (OD): 2.79 OD
[4]
  reverse transcriptase (RT) activity in the supernatants, Day 10 RT (OD): 2.25 OD

## KAL-NH2 (peptide)
[3]
  reverse transcriptase (RT) activity in the supernatants, Day 10 RT (OD): 2.75 OD
[4]
  reverse transcriptase (RT) activity in the supernatants, Day 10 RT (OD): 2.52 OD

## KAR-NH2 (peptide)
[3]
  reverse transcriptase (RT) activity in the supernatants, Day 10 RT (OD): 2.64 OD
[4]
  reverse transcriptase (RT) activity in the supernatants, Day 10 RT (OD): 1.72 OD

## LKA-NH2 (peptide)
[3]
  reverse transcriptase (RT) activity in the supernatants, Day 10 RT (OD): 2.77 OD
[4]
  reverse transcriptase (RT) activity in the supernatants, Day 10 RT (OD): 2.45 OD

## Ile-Leu-Lys-NH2 [ILK-NH2]
[8]
  reverse transcriptase (RT) activity in the supernatants, Day 10 RT (OD): 2.03 OD

## Leu-Lys-Ala-NH2 [LKA-NH2]
[8]
  reverse transcriptase (RT) activity in the supernatants, Day 10 RT (OD): 2.43 OD

## His-Lys-Ala-NH2 [HKA-NH2]
[8]
  reverse transcriptase (RT) activity in the supernatants, Day 10 RT (OD): 2.55 OD

## Gly-Ala-Thr-NH2 [GAT-NH2]
[8]
  reverse transcriptase (RT) activity in the supernatants, Day 10 RT (OD): 1.56 OD

## Lys-Gln-Gly-NH2 [Lys-Gln-Gly-NH2]
[9]
  p24 production of infected HUT78 cells (HIV-1 p24 ELISA), Day 7 HIV-1, reduction (%), peptide at 100 µM: 99%

## Ala-Cys-Gln-NH2 [ACQ-NH2]
[8]
  reverse transcriptase (RT) activity in the supernatants, Day 10 RT (OD): 0.904 OD

## Gly-His-Lys-NH2 [GHK-NH2]
[8]
  reverse transcriptase (RT) activity in the supernatants, Day 10 RT (OD): 2.15 OD

## Ala-Ser-Gly-NH2 [Ala-Ser-Gly-NH2]
[9]
  p24 production of infected HUT78 cells (HIV-1 p24 ELISA), Day 7 HIV-1, reduction (%), peptide at 100 µM: 25%

## Lys-Ala-Leu-NH2 [KAL-NH2]
[8]
  reverse transcriptase (RT) activity in the supernatants, Day 10 RT (OD): 2 OD

## Ser-Pro-Thr-NH2 [Ser-Pro-Thr-NH2]
[9]
  p24 production of infected HUT78 cells (HIV-1 p24 ELISA), Day 7 HIV-1, reduction (%), peptide at 100 µM: 25%

## Gly-Pro-Gln-NH2 [GPQ-NH2]
[8]
  reverse transcriptase (RT) activity in the supernatants, Day 10 RT (OD): 1.97 OD

## Gly-Val-Gly-NH2 [Gly-Val-Gly-NH2]
[9]
  p24 production of infected HUT78 cells (HIV-1 p24 ELISA), Day 7 HIV-1, reduction (%), peptide at 100 µM: 25%

## Arg-Gln-Gly-NH2 [Arg-Gln-Gly-NH2]
[9]
  p24 production of infected HUT78 cells (HIV-1 p24 ELISA), Day 7 HIV-1, reduction (%), peptide at 100 µM: 99%

## Cys-Gln-Gly-NH2 [Cys-Gln-Gly-NH2]
[8]
  reverse transcriptase (RT) activity in the supernatants, Day 10 RT (OD): 0.108 OD

## Val-Gly-Gly-NH2 [Val-Gly-Gly-NH2]
[9]
  p24 production of infected HUT78 cells (HIV-1 p24 ELISA), Day 7 HIV-1, reduction (%), peptide at 100 µM: 50%

## Ala-Leu-Gly-NH2 [Ala-Leu-Gly-NH2]
[9]
  p24 production of infected HUT78 cells (HIV-1 p24 ELISA), Day 7 HIV-1, reduction (%), peptide at 100 µM: 100%

## Lys-Ala-Arg-NH2 [KAR-NH2]
[8]
  reverse transcriptase (RT) activity in the supernatants, Day 10 RT (OD): 2.78 OD

## Ala-Arg-Val-NH2 [ARV-NH2]
[8]
  reverse transcriptase (RT) activity in the supernatants, Day 10 RT (OD): 1.53 OD

## Gly-Lys-Gly-NH2 [Gly-Lys-Gly-NH2]
[8]
  reverse transcriptase (RT) activity in the supernatants, Day 10 RT (OD): 0.074 OD

## Ser-Leu-Gly-NH2 [Ser-Leu-Gly-NH2]
[9]
  p24 production of infected HUT78 cells (HIV-1 p24 ELISA), Day 7 HIV-1, reduction (%), peptide at 100 µM: 99%
